# Assay results taken from paper PMC8292405, “Functional expression of the eukaryotic proton pump rhodopsin OmR2 in Escherichia coli and its photochemical characterization” (Scientific Reports, 2021).
# Legend:
# Asp88 = assay: UV-vis; conditions: room temperature (approx. 25 °C), 1 M NaCl, Buffer A: 50 mM Tris-HCl, 0.05% (w/v) DDM, pH adjusted by adding HCl, Unphotolysed state under room light, all-trans retinal bound with protonated Schiff base, folded (reversibility of the spectral changes was checked)
# Asp100 = conditions: not stated (counterion of the protonated Schiff base); cited from earlier work
# Asp97 = Asp97 (UniProt position 97, VFRYIDWLLTV); conditions: not stated (counterion of the protonated Schiff base); cited from earlier work
# [1] = target: T1, OmR2 (O. marina rhodopsin-2) (Oxyrrhis marina, UniProt A0A0B4P477); assay: absorption spectroscopy; HPLC of retinal oximes; type: binding; conditions: covalent; protonated Schiff base (Lys213); 50 mM Tris-HCl pH 7.0, 1 M NaCl, 0.05% DDM
# T1 construct: full-length, codon-optimized synthetic gene, C-terminal His6 tag kept; expressed in E. coli BL21(DE3) (pET21a) and in HEK293T; purified in DDM micelles
# T1 sequence (A0A0B4P477 entry or part of it): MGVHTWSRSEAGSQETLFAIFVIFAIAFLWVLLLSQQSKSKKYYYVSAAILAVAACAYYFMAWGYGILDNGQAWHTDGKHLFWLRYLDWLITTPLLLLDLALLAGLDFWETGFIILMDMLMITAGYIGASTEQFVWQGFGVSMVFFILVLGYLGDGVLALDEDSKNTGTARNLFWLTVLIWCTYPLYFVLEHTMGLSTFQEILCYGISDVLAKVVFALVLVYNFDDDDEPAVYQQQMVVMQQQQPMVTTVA
# Asp95 [2] = target: Asp95 (UniProt position 95, FYRYADWLLTV); conditions: not stated (counterion of the protonated Schiff base); cited from earlier work
# Asp95 [3] = target: Asp95 (UniProt position 95, YARYADWLFTT); conditions: not stated (counterion of the protonated Schiff base); cited from earlier work
# Asp81 = Asp81 (UniProt position 81, YARYIDWVLTT); conditions: not stated (counterion of the protonated Schiff base); cited from earlier work
# Asp85 = Asp85 (UniProt position 98, WARYADWLFTT); conditions: not stated (counterion of the protonated Schiff base); cited from earlier work
compound,measurement,setting,value
Oxyrrhis marina rhodopsin-2 (OmR2) (Oxyrrhis marina),pKa,Asp88,3.0 ± 0.04
"Oxyrrhis marina rhodopsin-1 (OmR1, OR1) (Oxyrrhis marina)",pKa,Asp100,4
"Proteorhodopsin (PR, green-absorbing) (uncultured marine gamma-proteobacterium (EBAC31A08))",pKa,Asp97,7.5
CC1=C(/C=C/C(C)=C/C=C/C(C)=C/C=O)C(C)(C)CCC1 [all-trans retinal],absorption spectroscopy; HPLC of retinal oximes,[1],This indicates that OmR2 possesses all-trans retinal regardless of the light environment
Thermophilic rhodopsin (TR) (Thermus thermophilus),pKa,Asp95 [2],3.4
Archaerhodopsin-3 (AR3) (Halorubrum sodomense),pKa,Asp95 [3],3.1
Acetabularia rhodopsin II (ARII) (Acetabularia acetabulum),pKa,Asp81,2.6
Bacteriorhodopsin (BR) (Halobacterium salinarum),pKa,Asp85,2.6
